Experimental data as given in patent publication US20170097353A1, “Polymer Viral Compositions” (The Regents of the University of California, priority 2015, published 2017).
“Also recorded” adds a separate entry of the source. Ends that are not written are not given here. * marks the point of attachment. Pent4ynoyl = C#CCCC(=O)*

Columns and labels:
PSMA on LNCaP cells = target: T1, PSMA on LNCaP cells (Homo sapiens, UniProt Q04609); assay: Cell-based phage ELISA, recognition of cell surface PSMA by PEGylated ligands on phage; conditions: for binding affinity of dual ligand combinations: 2:1 dual ligand combinations on phage, FIG. 5B; for binding affinity for cell surface PSMA: PEGylated ligand 2 variants, specific/non-specific attachment, with/without PEG4 linker, FIG. 5A
T1 construct: endogenous in cells; host or cells: LNCaP (also LNCaP CSS), glutaraldehyde-fixed on Maxisorp plates
Protocol: Day 1: The cell-based ELISA was performed as previously described by Watanabe et. al. with the following modifications. Cells were detached with Trypsin-EDTA, resuspended in PBS, and then collected by centrifuging at 1200 rpm for 5 min. The cells were further washed with PBS and then concentrated as in the previous step. The concentration of the cells was adjusted to 4.5×10^6 cells/mL in PBS using a hemocytometer, and 100 μL was aliquoted to specific wells of a 96-well microtiter plate (Maxisorp plates from Nunc). The Maxisorp plates used here have a high protein-binding capacity. Thus, the plates can be used to run assays with either the cells or the phage immobilized in the wells. Next, 50 μL of a 0.15% glutaraldehyde in PBS solution was added to the wells at 4° C., and the solution was gently mixed by pipetting. The ELISA plate was then centrifuged at 1200 rpm for 10 min at 4° C., followed by overnight incubation at 4° C.
Day 2: The cell solution was gently removed, and the wells were blocked with 200 μL/well of blocking buffer containing 100 mM glycine, 1% gelatin and 0.1% w/v BSA (bovine serum albumin) in PBS. The plate was incubated overnight (˜20-22 h) at room temperature.
Separately, phage were prepared before attachment to PEG and PEGylated ligands. Phage (10 nM in 100 μL of PBS) and 1 μL of K14-alkyne (525 μM in water) were thoroughly mixed by pipetting ˜25 times. For phage wrapped with PEGylated ligands, phage were mixed with 0.75 μL of K14-Cys (525 μM in water). For mixed wrapping on the phage surface, 0.5 μL of K14-alkyne was pre-mixed with 0.75 μL of K14-Cys, and then mixed with 100 μL of 10 nM phage. The solution was shaken at room temperature for 15 min on an orbital shaker. Next, 2 μL of PEGylated ligand (625 μM in water) was added to the appropriate wells. For the dual ligand combinations, the PEGylated ligands were pre-mixed in the desired ratio (a 2:1 molar ratio for example), and then 2 μL of the mixture was added to the appropriate wells. The solutions were gently mixed by pipetting, and incubated overnight at 4° C.
Day 3: Next, the click reaction was performed, as previously described, but with the following modifications. To buffer the pH, triethylammonium acetate was added to a final concentration of 50 mM, followed by the addition of 1.5 μL of 1 mM azide-functionalized PEG. The solutions were mixed by pipetting. Next, ascorbic acid was added to a final concentration of 1 mM and the solutions were mixed by gently pipetting. Then, copper sulfate was added to a final concentration of 1.5 mM, followed by pipetting to mix the solutions. Water was added to the other wells to maintain consistent phage concentrations. The plate was incubated at room temperature for 30 min.
The wells of the ELISA plate were then incubated with the phage samples. The blocking buffer was removed and the wells were gently washed two times with PBS. Next, the phage solution was added to the respective wells and incubated for 45 min. The phage solution was removed, and the wells were washed three times with 300 μL/well of wash buffer PT (0.05% Tween-20 in PBS), once with PBS, and then incubated with horseradish peroxidase-conjugated anti-M13 antibody (100 μL/well, 1:5000 dilution in PBS) for 40 min. The wells were washed three times with PT and once with PBS. The plate was then developed by incubating with HRP substrate solution (100 μL/well; 1 mg/mL o-phenylenediamine dihydrochloride and 0.02% w/v H2O2) in citric acid buffer (50 mM citric acid, 50 mM Na2HPO4, pH 5.0). The HRP activity was measured spectrophotometrically at 450 nm using a microtiter plate reader (Bio-Tek). The absorbance at 630 nm was subtracted from the absorbance at 450 nm to eliminate background.

[1] = Dynamic light scattering (DLS) size measurement; assay type: physicochemical
Protocol: For determination of size, 1 mL of each sample was measured at the same concentration as used for the biological assay. Each sample was measured at least three times at 25° C., with each individual size measurement being the average of 10 runs.

PSMA = target: T2, PSMA (Homo sapiens, UniProt Q04609); conditions: genetically encoded, phage-displayed ligands [4,10]; cited from earlier work
T2 construct: The effective detection of PSMA shed by LNCaP cells, in androgen sensitive and androgen independent cells; endogenous in cells; host or cells: culture supernatant of LNCaP and LNCaP CSS cells
T2 sequence (Q04609 whole entry): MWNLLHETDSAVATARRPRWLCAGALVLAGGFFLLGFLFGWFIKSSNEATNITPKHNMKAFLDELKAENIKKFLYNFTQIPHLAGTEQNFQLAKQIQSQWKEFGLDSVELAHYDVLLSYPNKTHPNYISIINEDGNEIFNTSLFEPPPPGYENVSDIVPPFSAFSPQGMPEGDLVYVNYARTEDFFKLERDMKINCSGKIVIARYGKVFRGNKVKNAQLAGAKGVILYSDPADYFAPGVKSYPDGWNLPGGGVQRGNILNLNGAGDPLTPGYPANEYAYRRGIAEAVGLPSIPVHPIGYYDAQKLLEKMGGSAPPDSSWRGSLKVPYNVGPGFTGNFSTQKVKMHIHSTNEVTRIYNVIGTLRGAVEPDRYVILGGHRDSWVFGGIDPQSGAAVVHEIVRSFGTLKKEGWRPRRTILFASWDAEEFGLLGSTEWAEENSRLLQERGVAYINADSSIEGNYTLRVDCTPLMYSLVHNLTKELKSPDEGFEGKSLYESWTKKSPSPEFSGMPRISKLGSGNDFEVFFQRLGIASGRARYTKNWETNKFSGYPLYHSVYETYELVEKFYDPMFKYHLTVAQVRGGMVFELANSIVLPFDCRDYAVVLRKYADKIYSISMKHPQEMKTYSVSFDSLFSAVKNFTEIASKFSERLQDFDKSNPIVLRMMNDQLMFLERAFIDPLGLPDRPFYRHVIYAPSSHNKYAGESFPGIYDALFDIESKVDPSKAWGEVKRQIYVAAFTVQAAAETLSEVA

T1 sequence (Q04609 whole entry): as above

Substance: P100NSP-2: PEG100, non-specific attachment to ligand 2; bioconjugated to phage wrapped with K14-Cys (SECVEVFQNSCDW-NH2; not fully specified (N-terminus); cysteine pairing not given here; also: PEG100 attached non-specifically)
- binding affinity for LNCaP cells (PSMA on LNCaP cells; phage wrapped with K14-Cys and individual PEGylated ligand, FIG. 14): higher affinity for LNCaP cells compared to P100NSP-1

Substance: K14-Cys: oligolysine (K14) peptide with cysteine, wraps the phage, SEQ ID NO:2 (KKKKKKKKKKKKKKC; not fully specified (C-terminus))
- average cross-sectional diameter ([1]; DLS backscatter mode, scattering angle 173°, FIG. 3A): 50.0 nm

Substance: P100NSP-2+P100NSP-1: phage wrapped with 2:1 dual ligand combination of P100NSP-2 and P100NSP-1 (peptide 1 SECVEVFQNSCDW; peptide 2 CALCEFLG)
- binding affinity of dual ligand combinations (PSMA on LNCaP cells; LNCaP cells): only a modest improvement
- recognition of PSMA on LNCaP cells (PSMA on LNCaP cells; different ratios of the two PEGylated, phage-wrapped ligands, FIG. 4): maximize the recognition of PSMA on LNCaP cells

Substance: P100SP-P4-2: PEG100, specific attachment, PEG4 linker, ligand 2; on phage wrapped with K14-Cys (SECVEVFQNSCDW-NH2; not fully specified (N-terminus); cysteine pairing not given here; also: PEG100, specific attachment, PEG4 linker)
- binding affinity for cell surface PSMA (PSMA on LNCaP cells): most effective architecture
- increase in cross-sectional diameter ([1]; DLS backscatter mode, relative to previous wrapping step, FIGS. 3A-3B): 10 nm

Substance: P100SP-2: PEG100, specific attachment to ligand 2; bioconjugated to phage wrapped with K14-Cys (SECVEVFQNSCDW-NH2; not fully specified; cysteine pairing not given here; also: specific N-terminal attachment to Mal-PEG100 via triazole)
- binding affinity for cell surface PSMA (PSMA on LNCaP cells): higher binding affinity for cell surface PSMA than P100NSP-2

Substance: P100NSP-P4-2+P100NSP-P4-1: phage wrapped with dual ligand combination, non-specific attachment with PEG4 linker (peptide 1 SECVEVFQNSCDW-NH2; peptide 2 CALCEFLG-NH2; not fully specified (N-terminus); cysteine pairing not given here; also: PEG100 non-specific attachment with PEG4 linker)
- binding affinity of dual ligand combinations (PSMA on LNCaP cells; LNCaP cells): drop in affinity; also recorded: affinity equivalent to P100NSP-P4-2

Substance: SECVEVFQNSCDW [ligand-2]
- higher affinity to PSMA than ligand-1 (PSMA): > 100 fold

Substance: P100SP-P4-2+P100SP-P4-1: phage wrapped with dual ligand combination in a 2:1 ratio, specific attachment with PEG4 linker (peptide 1 SECVEVFQNSCDW-NH2; peptide 2 CALCEFLG-NH2; not fully specified (N-terminus); cysteine pairing not given here; also: mixture of two PEG100 conjugates (ligand 2 and ligand 1, 2:1) with PEG4 linker, specific N-terminal triazole attachment)
- binding affinity of dual ligand combinations (PSMA on LNCaP cells; LNCaP cells): significant increase in binding affinity

Substance: K14-alkyne: alkyne-functionalized oligolysine (K14) peptide that wraps the phage, SEQ ID NO:1 (Pent4ynoyl-KKKKKKKKKKKKKK-NH2; SMILES C#CCCC(=O)N[C@@H](CCCCN)C(=O)N[C@@H](CCCCN)C(=O)N[C@@H](CCCCN)C(=O)N[C@@H](CCCCN)C(=O)N[C@@H](CCCCN)C(=O)N[C@@H](CCCCN)C(=O)N[C@@H](CCCCN)C(=O)N[C@@H](CCCCN)C(=O)N[C@@H](CCCCN)C(=O)N[C@@H](CCCCN)C(=O)N[C@@H](CCCCN)C(=O)N[C@@H](CCCCN)C(=O)N[C@@H](CCCCN)C(=O)N[C@@H](CCCCN)C(N)=O)
- PSMA recognition / binding affinity with PEG spacers (PSMA on LNCaP cells; dual ligand combination P100SP-P4-2+P100SP-P4-1 with or without spacers, LNCaP cells, FIG. 6): no effect on binding affinity

Substance: PEGylated oligolysine: K14-alkyne pre-conjugated to azide PEG7, 22 or 45 by click reaction, then applied to phage (Pent4ynoyl-KKKKKKKKKKKKKK-NH2; also: alkyne click-conjugated (triazole) to azide PEG7, 22 or 45)
- change in the cross-sectional diameter of the treated phage ([1]; DLS, phage treated with pre-formed PEGylated oligolysine (data not shown)): no significant change
